Laboratory results taken from PMC8739950, “The MocR/GabR Ectoine and Hydroxyectoine Catabolism Regulator EnuR: Inducer and DNA Binding” (Frontiers in Microbiology, 2021).
Where two headings read alike, the source gives them in different places.

Assays:
[1] = molecular target: Ectoine nutrient utilization regulator (EnuR) from Ruegeria pomeroyi DSS-3, full-length wild type, EnuR-Strep-tag II (Ruegeria pomeroyi DSS-3); assay: SEC; HiLoad 16/600 Superdex 200 pg column; masses estimated against marker proteins (thyroglobulin, alcohol dehydrogenase, bovine albumin, carbonic anhydrase); quaternary assembly of the Strep-Tactin purified proteins
[2] = molecular target: C-terminal aminotransferase domain of the EnuR* (Lys302His) mutant from Ruegeria pomeroyi DSS-3, Strep-tag II fusion (Ruegeria pomeroyi DSS-3); assay: as above
EnuR [3] = molecular target: T1, EnuR (Ruegeria pomeroyi, UniProt Q5LUA6); assay: microscale thermophoresis; format: binding
T1 construct: gene gntR; full-length EnuR with C-terminal Strep-tag-II, PLP-containing
T1 sequence (Q5LUA6 1-464): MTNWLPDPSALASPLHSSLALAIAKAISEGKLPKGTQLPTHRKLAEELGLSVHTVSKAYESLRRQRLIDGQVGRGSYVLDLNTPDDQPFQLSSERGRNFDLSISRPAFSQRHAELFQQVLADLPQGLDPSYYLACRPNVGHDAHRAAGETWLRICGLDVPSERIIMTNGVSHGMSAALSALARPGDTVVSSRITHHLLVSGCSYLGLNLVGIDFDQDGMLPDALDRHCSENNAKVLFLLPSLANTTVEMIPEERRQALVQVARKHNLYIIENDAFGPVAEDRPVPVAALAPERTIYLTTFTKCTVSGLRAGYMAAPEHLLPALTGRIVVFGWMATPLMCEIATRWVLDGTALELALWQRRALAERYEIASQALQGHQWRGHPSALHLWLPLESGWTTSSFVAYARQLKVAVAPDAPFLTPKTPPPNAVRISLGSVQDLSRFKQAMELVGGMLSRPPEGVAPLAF

[4] = system: EnuR (C-terminal Strep-tag II fusion, PLP-bound) (Ruegeria pomeroyi DSS-3); assay: MST; conditions: PLP-containing EnuR, 200 nM; MST: 10 mM Tris-HCl pH 7.5, 150 mM NaCl, 0.07% Tween20, 21 C; 200 nM NT-647-labeled EnuR titrated with DNA
EnuR [5] = molecular target: T2, EnuR (Ruegeria pomeroyi, UniProt Q5LUA6); assay: microscale thermophoresis; format: binding; remark: listed apart in the source
T2 construct: gene gntR; full-length EnuR with C-terminal Strep-tag-II, PLP-containing

[6] = molecular target: EnuR* (Lys302His) mutant of full-length EnuR from Ruegeria pomeroyi DSS-3, EnuR*-Strep-tag II (Ruegeria pomeroyi DSS-3); assay: SEC; HiLoad 16/600 Superdex 200 pg column; masses estimated against marker proteins (thyroglobulin, alcohol dehydrogenase, bovine albumin, carbonic anhydrase); quaternary assembly of the Strep-Tactin purified proteins
[7] = molecular target: C-terminal aminotransferase domain (ATD) of wild-type EnuR from Ruegeria pomeroyi DSS-3, Strep-tag II fusion (Ruegeria pomeroyi DSS-3); assay: as above

“Ectoine nutrient utilization regulator (EnuR) from Ruegeria pomeroyi DSS-3, full-length wild type, EnuR-Strep-tag II (natural protein)” gave a stoichiometry N [1] of 2.
With “C-terminal aminotransferase domain of the EnuR* (Lys302His) mutant from Ruegeria pomeroyi DSS-3, Strep-tag II fusion (domain or fragment)” the stoichiometry N [2] was 2.
`CC(=O)N[C@H](C(=O)O)[C@@H](O)CN` [hydroxy-α-ADABA] gave a Kd (EnuR [3]) of 0.43 ± 0.2 µM.
“TAACATTGTCGCGCGACAATAAAAAAATTGACATGCAGTACAATTCCC (double strand) [MST BS WT 48 bp promoter/operator fragment]” was tested, and the Kd [4] was 1.9 µM.
With `CC(=O)N[C@@H](CCN)C(=O)O` [α-ADABA] the Kd (EnuR [5]) was 2.55 ± 0.5 µM.
For “EnuR* (Lys302His) mutant of full-length EnuR from Ruegeria pomeroyi DSS-3, EnuR*-Strep-tag II (natural protein)”, the stoichiometry N [6] was 2.
“C-terminal aminotransferase domain (ATD) of wild-type EnuR from Ruegeria pomeroyi DSS-3, Strep-tag II fusion (domain or fragment)” was tested, and the stoichiometry N [7] was 2.
